Laboratory results: the nanobody polyreactivity screen of Harvey et al. (2022)

Assay: yeast display, Sf9 membrane polyspecificity reagent, FACS + sequencing; frameworks hold sequencing errors
In short: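 Polyreactivity labels are assigned by the sorting gate from which each nanobody was recovered. The gates were low and high (top ~1%), set on anti-HA fluorescence for expression and streptavidin fluorescence for reagent binding. Before sorting, galactose-induced (36–48 hours) yeast display cells were stained for 1 hour at 4 °C with 10% biotinylated, detergent-solubilized Sf9 membrane reagent.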

Q: For “QVQHVESGGGLVQAGGSLRLSCAASGRIFIVNAMGWYRQAPGKERELVAAISYRGGSTYYADSVKGRFTISRDNAKNTVYLQMNSLKPEDTAVYYCAADRYSYLGYPYEYEYWGQGTQVTVSS”, which “polyreactivity (PSR sort gate)” value is on record?
A: low polyreactivity

Q: Which “polyreactivity (PSR sort gate)” value does the source give for “QVQLVESGGGLVQAGGSLRLSCAASGRTFTYNTMGWYRQAPGKERELVAAISSRGGRTYYADSVKGRFTISRDNAKNTVYLQMNSLKPEDTAVYYCNADYRYPQYYHRTWIRYDYWGQGTQVTVSS” here?
A: high polyreactivity

Q: With “QVQLVESGGGLVQAGGSLRLSCAASGRIFRRYALGLYRQAPGKEREFVAAISYGGGSTYYADSVKGRFTISRDNAKNTVYLQMNRLKPEDTAVYFCNADVPKSLLLYYPWGYGYWGQGTQVTVSS” as the sequence, how does the “polyreactivity (PSR sort gate)” value read?
A: low polyreactivity

Q: For “QDQLVESGGGLVQAGGSLRLSCAASGSIFVYNTMGWYRPAPRKESDLVAAISSSGGSTYYADSVKGRYTISRDNAKNTVYLQMNSLKPEDTAVYYCAAVNGYQYPPNYYNGYDYWGQGTQVTVSS”, which “polyreactivity (PSR sort gate)” value is on record?
A: low polyreactivity

Q: With “QVQLVESGGGLVQAGGSLRLSCAASGFTCSTYAMGWYSQAPGKERELVAVISWNGGSTYYADSVKGRFTISRDNANNTVYLQMNSLKPEDTAVYYCDARGSFKQGYWGQGTQVTVSS” as the sequence, how does the “polyreactivity (PSR sort gate)” value read?
A: high polyreactivity

Q: For “QVQLVESGGGLVQAGGSLRLSCAASGSTFIPYAMGWYRQAPGKERELVAAIRGGDGSTYYADSVKGRFTISRDNAKNTVYLQMNSLKPEDTAVYYFAADTVITAYFDRFWRYNYWGQGTQVTVSS”, which “polyreactivity (PSR sort gate)” value is on record?
A: low polyreactivity

Q: Which “polyreactivity (PSR sort gate)” value does the source give for “QVQLVESGGGLVQAGGSLRLSCAASGRIFRGNAMGWYRQAPGKERELVAASTSSGDSTFYADSVKGRFTISRDNAKNTVYLQMNSLKPEDTAVYYCAANVRYQRTSGYYYWGQGTQVTVSS” here?
A: high polyreactivity

Q: With “QVQLVESGGGLVQAGGSLRLSCAASGSIFDANAMGWYRQAPGKERELVATIRIGGSTNYADSVKGRFRISRDNAKNTVYLQMYSLKPEDTAGYYCAASRQFRSRRFYYWGQGTQVTVSS” as the sequence, how does the “polyreactivity (PSR sort gate)” value read?
A: high polyreactivity

Q: For “QVQLVESGGGLVQAGGSLRLSCAASGRIFYPYAMGWYRQAPGKERELVAAIDKGGGSTYYADSVKGRFTISRDNAKNTVYLQMNSLKPEVTAVYYCAAGWEYPYDYWGQGTQVTVSS”, which “polyreactivity (PSR sort gate)” value is on record?
A: low polyreactivity

Q: Which “polyreactivity (PSR sort gate)” value does the source give for “QVQLQESGGGLVQAGGSLRLSCAASGYISTFSAEMGWYRQAPGKERELVASIAPGCTTSYADSVKGRFTISRDNAKNTVYLQMNSLKPEDTAVYYCAVDYTLPASFGYWGQGTQVTVSS” here?
A: high polyreactivity

Q: With “QVQLVESGGGLVQAGGSLRLSCAASGIIFRYNAMGWYSQAPGKDRELVAAITYRGGSTRYADSVKGRFTISRDNAKNTVYLQMNSLKPEDTAVYYCNAQRRTYIYDYWGQGTQVTVSS” as the sequence, how does the “polyreactivity (PSR sort gate)” value read?
A: high polyreactivity

Q: With “QVQLVESGGGLVQAGGILRLSCAASGLTFYYYSMGWYRQAPGKERELVAAINSSGGITFYADSVKGRFTISRDNAKNTVYLQMNSLKPEDTAVYYCAAGGRSKRYGYWGQGTQVTVSS” as the sequence, how does the “polyreactivity (PSR sort gate)” value read?
A: low polyreactivity

Q: With “QVQLVESGGGLVQAGGSLRLSCAASGRTFGFNAMGWYRQAPGKERELVATITTGGSTNYADSVKGRFTISRDNAKNTVYLQMNSLKPEDTAVYYCATDGWFRSGYKYFTHFYFWGQGTQVTVSS” as the sequence, how does the “polyreactivity (PSR sort gate)” value read?
A: high polyreactivity

Q: With “QVQLVESGGGLVQAGGSLRFSCAASGSTFFSYAMGWYRQAPGKERELVATIRGSAGRTYYADSVKGRFTISRDHANYTVYLQMNSLKPEDTAVYYCARRYWPGSAYWIYDYWGQGTQVTVSS” as the sequence, how does the “polyreactivity (PSR sort gate)” value read?
A: high polyreactivity

Q: Which “polyreactivity (PSR sort gate)” value does the source give for “QVQLVESGGGLVQAGGSLRLSCAASGFIFSVYAMGWYRQAPGKERELVAVISTSGGRTYYADSVKGRFTISRDNAKNTVYLQMNSLKPEDTAVYYCAADGFQYTLGNYYWGQGTQVTVSS” here?
A: high polyreactivity

Q: Which “polyreactivity (PSR sort gate)” value does the source give for “QVQHVETGGGLVQAGGSLRLSCAASGRIFSYNAMGWYRQPPGKERELVAAISQRGGRTYYADSVKGRFTISRDNAKNTVYLQMNSLKPEDPAVYDCNKDKGQSLSSYGYWGQGTQVTVSS” here?
A: high polyreactivity

Q: For “QVQLVESGGGLVQAGGSLRLSCPASGSTFVLNAMGWYSQAPGKERELVAAITGSGSTNYADSVKGRFTISRDNAKNTVYLQMNRLKPEDTAVYYCATAAVYPIPFGYWGQGTQVTVSS”, which “polyreactivity (PSR sort gate)” value is on record?
A: low polyreactivity

Q: With “QVQQQESGGGLVQAGGSLRLSCAASGTIFQLTVMGRYRQAPGKERELVASIDYGGNTNYADSVKGRFTISRDNAKYTVYLLMISLKPEDTAVYYCAASSVSWTTHPYWGQGTQVTVSS” as the sequence, how does the “polyreactivity (PSR sort gate)” value read?
A: low polyreactivity

Q: Which “polyreactivity (PSR sort gate)” value does the source give for “QFQLVESGGGLVQAGGSLRLSCAASGFIFGYNAMGWYRQAPGKERELVAAINWSGDITYYADSVKGRFTISRDNAKNTVYLQMNSLKPEDTAVYYCAADDYYIPSSWDFDYWGQGTQVTVSS” here?
A: low polyreactivity

Q: Which “polyreactivity (PSR sort gate)” value does the source give for “QVQLQDSGGGLVQAGGSLRLNCATSGTIFVLWYMGWYRQAPGKERELVATINDGANTYYADSVKGRFTINRDNAYSTVYLKMNSLKPEDTAVYYCAVYAIIVWGLGYWGQGTQVTVSS” here?
A: high polyreactivity

Q: Which “polyreactivity (PSR sort gate)” value does the source give for “QVQLVESGGGLVQAGGSLRLSCAASGFTFGTYDMGWYRQAPGKERELVAAIDWGGGSTYYADSVKGRFTISRDNAKNTFYLQMNSLKTEDTAFYYCAADGPGDYLTLEWYWFTYYYWGQGTQVTVTS” here?
A: high polyreactivity

Q: With “QVQLVESGGGLVQAGGSLRLSCAASGSIFLAYAMGWYRQAPGKERELVADISYSGGRTYYADSVMGRFTISRDNAKNTVYLQMNSLIPEDTAVYYCAADPWHDTDQHGNDYWGQGSQVTVSS” as the sequence, how does the “polyreactivity (PSR sort gate)” value read?
A: low polyreactivity

Q: Which “polyreactivity (PSR sort gate)” value does the source give for “QVQLVESGGGLVQAGGSLSLSCAASGRTFGAYAMGWYRQAPGKERELVATITVSGGSTYYADSVKGRFTISRDNAKNTVYLQMNSLKREDTAVYYCAAEWYPYPWGYGYWGQGTQVTVSS” here?
A: low polyreactivity

Q: For “QVQLQESGGGLEQAGGSLRLSCAASGNISSWYPMGWYRQAPGKEREFVATIAPVATTNYADSVKGRFTISRDYAKITVYLQMNSLKPEDTAVNYCAAGPDNNDFYSYWGQGTQVTVSS”, which “polyreactivity (PSR sort gate)” value is on record?
A: low polyreactivity

Q: With “QVQLVESGGGLVQAGGSLRLSCAASGLIFESYAMGWYRQAPRKERELFAAITRSGARTYYADSVKGRFSISRDNAKNTVYLQMNILKPEDTAVYYCAAAPWYFFDQYFNGISFGYYYWGQGTQLTVSS” as the sequence, how does the “polyreactivity (PSR sort gate)” value read?
A: high polyreactivity

Q: With “QVQLVQSGGGLVQAGGRLSLSCAASGYIFFTNAMGWYRQAPGKERELVAAISSAGRTKYADSVKGRFTISRDNAKNTVYIQMNSLIPEDTAVYYCNKSFYYRWGTGYDYWGQGTQVTVSS” as the sequence, how does the “polyreactivity (PSR sort gate)” value read?
A: low polyreactivity

Q: Which “polyreactivity (PSR sort gate)” value does the source give for “QVQLVESGGCLVQAGGSLRLSCAASGSIYGYTMGWYRQAPGKERELVAAINRRADRTYYADSVKGRFTISRDNAKNTVYLQMNSLKPEDTAVYYCATLQGDSSSQYDYWGHGTQVTVSS” here?
A: high polyreactivity

Q: For “QVQLVESGGGLVQAGGSLRLSCAASGIIFKGYAMGWYRQAPGKERELVAAISQSGGSTYYADSVKGRFTISRDNAKNTVYLQMNSLKPEDTAVYYCNARYSRVVPRYYYWGQGTQVTVSS”, which “polyreactivity (PSR sort gate)” value is on record?
A: high polyreactivity

Q: Which “polyreactivity (PSR sort gate)” value does the source give for “QVQLVESGGGLVQAGGSLLLSCAASGFIFDYNAMGGYRPAPGKETELVAAISRSGGSTYADSVKGRFTFSRDNAMNTVYLQMNSLKPEDTAVYYCAADILSRSRSRRVDYWGQGTQVTVSS” here?
A: low polyreactivity

Q: For “QVQLVESGGGLVQAGGSLRLSCAASGRTFFHYAMGWYRQAPGKERELVAGISSGGRTKYADSVKGRFTISRDNAKNTVYLQMNSLKPEDTAVYYCAASYIVWLTRGAPRKRFDYWGQGTQVTVSS”, which “polyreactivity (PSR sort gate)” value is on record?
A: high polyreactivity

Q: For “QVQLVESGGGLVQAGGSLRLSCAASGSIFYGYAMGWFRQAPGKEREFVADITSSGVSTYYADSVKGRFTISRDNAKNSVYLQINSLKPEDTAVYYCAKLRRYYSSVYHKFVFYTDDYWGQGSQVTVSS”, which “polyreactivity (PSR sort gate)” value is on record?
A: high polyreactivity

Q: With “QVQLVESGGGLVQAGGSLRLSCAASGSIFAVYAMGWYRQAPGKERELVAASSTDYAESVKGRFTISRDNAKNTVFLQLNRLKPEDTAVYYCAKVGFGIPGGFYYWGQGTQVTVSS” as the sequence, how does the “polyreactivity (PSR sort gate)” value read?
A: low polyreactivity

Q: Which “polyreactivity (PSR sort gate)” value does the source give for “QVQLVESGGGLVQAGGSLRLSCAASGFIFRYYTMGWYRQAPGKERELVASISRRGGSTYYADSVKGRFTISRDNAKNIVYVQMNSLKEVDTAVYYCNADRRLGDGYWGQGTQVTVSS” here?
A: high polyreactivity

Q: With “QVQLVESGVGLVQAGGSLRLSCAASGFTFQYYAMGWYRQAPGKERELVAAITRGDSTNYADSVKGRFTISRDNAKNTVYLQMNSLKPEDTAVYYCAAGSAPSYWGGWYYERDYWGQGTQVTVSS” as the sequence, how does the “polyreactivity (PSR sort gate)” value read?
A: low polyreactivity

Q: For “QVQLVESGGGLVQAGGSLRLSCAASGSTFGYYAMGWYRQAPGKERELVAAITGSGGRTYYADSVKGRFTISRDNAKNTVYLQMNSLKPEDTAVYYCAARTYRTEFAYGSWGQGTQVTVSS”, which “polyreactivity (PSR sort gate)” value is on record?
A: low polyreactivity

Q: With “QVRLVESCGGLVQAGGSLRLSCAASGITFQYNAMGWYRQAPGKERELVATIRRGGITKYADSVKGRFTISRDNAKNTVYLQMNSLKPEDTAVYYCNADWVWRYSSDFDYWGQGTQVTVSS” as the sequence, how does the “polyreactivity (PSR sort gate)” value read?
A: low polyreactivity

Q: Which “polyreactivity (PSR sort gate)” value does the source give for “QVQLVESGGGLVQAGGSLRLSCAASGIIFELYAMGWYRQAPGKEREFVAAINFSDGSTDYADSVKGRFTISRDNAKNTVYLQMNSLKPEDTAVYYCNADTIAYGSIIHGYWGQGTQVTVSS” here?
A: low polyreactivity

Q: For “QVQLVESGGGLVQAGGSLPLSCAASGSTFRYNAMGWYRQAPAKERELVAAISSGSSTNYADSVKGRFTISLDNAKNTVYLQMKSLKPEDTAVYYCARRPFYYHQLDDDYWGQGTQVTVSS”, which “polyreactivity (PSR sort gate)” value is on record?
A: low polyreactivity

Q: With “QVQLVESGGGLVQAGGSLRLSCAASGFIFYKYAMGWYRQAPGKERELVAAISRRGGNTYYADSVKGRFTISRDNAKNTVYLQMNSLKPEDTAVYYCIAVLYFPYEYWGQGTQVTVSS” as the sequence, how does the “polyreactivity (PSR sort gate)” value read?
A: high polyreactivity

Q: Which “polyreactivity (PSR sort gate)” value does the source give for “QVQLVESGGGLVQAGGSLRLSCAASGRTFTYYAMGWYRQAPGKERELVAAITWSGGSTYYADSVKGRFTISRDNAKNTVYLQMNSLKPEDTAVYYCAAVDADYYYWGQGTQVTVSS” here?
A: high polyreactivity

Q: Which “polyreactivity (PSR sort gate)” value does the source give for “QVQLVESVGGLVQAGGSLRLSSAASGITFQYYDMGWYRQAPGKERELVAAIDTSGGSTYYADSVKGRFTISRDNEKNTVYLHMNSLKREDTSVYYGAACYYGYSVYGRMYYWGQGTQVTVSS” here?
A: low polyreactivity

Q: Which “polyreactivity (PSR sort gate)” value does the source give for “QVQLVESGGGLVQAGGSLRLSCAASGSTFVDNAMGWYRQAPGKERELVAAINSTDITNYADSVKGRFTISRDNAKNTVYLQMNSLKPEDTAVYYCAKDLLKWRKYQWYYYWGQGTQVTVSS” here?
A: low polyreactivity

Q: For “QVQLVESGGGLVQAGGSLRLSCAASGYIFPYNAMGWYRQAPGKERELVATITWTGGSKYYADSVKGRFTISRDNAKNTVYLQMNSLKPEDTAVYDCADDLSIRYDHEYGYWGQGTQVTVSS”, which “polyreactivity (PSR sort gate)” value is on record?
A: low polyreactivity
